Experimental data: patent US20020019519

B1: His and myc epitope tagged human NAK amino acids 1-337 (from pcDNA3.1.NAK(1-337)-Hm, expressed in HEK293 cells) (protein)
chain: MASDSPARSLDEIDLSALRDPAGIFELVELVGNGTYGQVYKGRHVKTGQLAAIKVMDVTGDEEEEIKQEINMLKKYSHHRNIATYYGAFIKKNPPGMDDQLWLVMEFCGAGSVTDLIKNTKGNTLKEEWIAYICREILRGLSHLHQHKVIHRDIKGQNVLLTENAEVKLVDFGVSAQLDRTVGRRNTFIGTPYWMAPEVIACDENPDATYDFKSDLWSLGITAIEMAEGAPPLCDMHPMRALFLIPRNPAPRLKSKKWSKKFQSFIESCLVKNHSQRPATEQLMKHPFIRDQPNERQVRIQLKDHIDRTKKKRGEKDETEYEYSGSEEEEEENDSGE
B2: recombinant full-length human NAK protein with hexa His and myc epitope tags (from pcDNA3.1.NAK-Hm, expressed in HEK293 cells) (protein)
chain: MASDSPARSLDEIDLSALRDPAGIFELVELVGNGTYGQVYKGRHVKTGQLAAIKVMDVTGDEEEEIKQEINMLKKYSHHRNIATYYGAFIKKNPPGMDDQLWLVMEFCGAGSVTDLIKNTKGNTLKEEWIAYICREILRGLSHLHQHKVIHRDIKGQNVLLTENAEVKLVDFGVSAQLDRTVGRRNTFIGTPYWMAPEVIACDENPDATYDFKSDLWSLGITAIEMAEGAPPLCDMHPMRALFLIPRNPAPRLKSKKWSKKFQSFIESCLVKNHSQRPATEQLMKHPFIRDQPNERQVRIQLKDHIDRTKKKRGEKDETEYEYSGSEEEEEENDSGEPSSILNLPGESTLRRDFLRLQLANKERSEALRRQQLEQQQRENEEHKRQLLAERQKRIEEQKEQRRRLEEQQRREKELRKQQEREQRRHYEEQMRREEERRRAEHEQEYIRRQLEEEQRQLEILQQQLLHEQALLLEYKRKQLEEQRQAERLQRQLKQERDYLVSLQHQRQEQRPVEKKPLYHYKEGMSPSEKPAWAKEVEERSRLNRQSSPAMPHKVANRISDPNLPPRSESFSISGVQPARTPPMLRPVDPQIPHLVAVKSQGPALTASQSVHEQPTKGLSGFQEALNVTSHRVEMPRQNSDPTSENPPLPTRIEKFDRSSWLRQEEDIPPKVPQRTTSISPALARKNSPGNGSALGPRLGSQPIRASNPDLRRTEPILESPLQRTSSGSSSSSSTPSSQPSSQGGSQPGSQAGSSERTRVRANSKSEGSPVLPHEPAKVKPEESRDITRPSRPASYKKAIDEDLTALAKELRELRIEETNRPMKKVTDYSSSSEESESSEEEEEDGESETHDGTVAVSDIPRLIPTGAPGSNEQYNVGMVGTHGLETSHADSFSGSISREGTLMIRETSGEKKRSGHSDSNGFAGHINLPDLVQQSHSPAGTPTEGLGRVSTHSQEMDSGTEYGMGSSTKASFTPFVDPRVYQTSPTDEDEEDEESSAAALFTSELLRQEQAKLNEARKISVVNVNPTNIRPHSDTPEIRKYKKRFNSEILCAALWGVNLLVGTENGLMLLDRSGQGKVYNLINRRRFQQMDVLEGLNVLVTISGKKNKLRVYYLSWLRNRILHNDPEVEKKQGWITVGDLEGCIHYKVVKYERIKFLVIALKNAVEIYAWAPKPYHKFMAFKSFADLQHKPLLVDLTVEEGQRLKVIFGSHTGFHVIDVDSGNSYDIYIPSHIQGNITPHAIVILPKTDGMEMLVCYEDEGVYVNTYGRITKDVVLQWGEMPTSVAYIHSNQIMGWGEKAIEIRSVETGHLDGVFMHKRAQRLKFLCERNDKVFFASVRSGGSSQVFFMTLNRNSMMNW
B3: His and myc epitope tagged human NAK amino acids 1-529 (from pcDNA3.1.NAK(1-529)-Hm, expressed in HEK293 cells) (protein)
chain: MASDSPARSLDEIDLSALRDPAGIFELVELVGNGTYGQVYKGRHVKTGQLAAIKVMDVTGDEEEEIKQEINMLKKYSHHRNIATYYGAFIKKNPPGMDDQLWLVMEFCGAGSVTDLIKNTKGNTLKEEWIAYICREILRGLSHLHQHKVIHRDIKGQNVLLTENAEVKLVDFGVSAQLDRTVGRRNTFIGTPYWMAPEVIACDENPDATYDFKSDLWSLGITAIEMAEGAPPLCDMHPMRALFLIPRNPAPRLKSKKWSKKFQSFIESCLVKNHSQRPATEQLMKHPFIRDQPNERQVRIQLKDHIDRTKKKRGEKDETEYEYSGSEEEEEENDSGEPSSILNLPGESTLRRDFLRLQLANKERSEALRRQQLEQQQRENEEHKRQLLAERQKRIEEQKEQRRRLEEQQRREKELRKQQEREQRRHYEEQMRREEERRRAEHEQEYIRRQLEEEQRQLEILQQQLLHEQALLLEYKRKQLEEQRQAERLQRQLKQERDYLVSLQHQRQEQRPVEKKPLYHYKEGMSPSE

Target: myelin basic protein (MBP) (Sigma)
Sequence (P02687 whole entry): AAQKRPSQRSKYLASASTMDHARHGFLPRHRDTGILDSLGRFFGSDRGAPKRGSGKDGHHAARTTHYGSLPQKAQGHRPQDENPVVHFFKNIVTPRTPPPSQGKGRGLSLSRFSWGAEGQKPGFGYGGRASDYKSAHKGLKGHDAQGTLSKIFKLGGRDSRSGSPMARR

Protein	kinase activity (incorporation of phosphate in MBP, 32P, P81 paper, scintillation counting)
B1	display increased kinase activity (FIG. 4b)
B2	Recombinant NAK protein displays enzymatic (kinase) activity
B3	display increased kinase activity (FIG. 4b)
